Reference: US20240270821A1, “GIP/GLP1/GCG TRI-RECEPTOR AGONISTS AND USES THEREOF” (priority 2023, published 2024)

Columns and labels:
Experiment in all cases: cell-based or functional assay
hGLP-1R = hGLP-1R (Homo sapiens, UniProt P43220)
[1] = target: T1, human GIP receptor (human) (UniProt P48546)
T1 sequence (looked up): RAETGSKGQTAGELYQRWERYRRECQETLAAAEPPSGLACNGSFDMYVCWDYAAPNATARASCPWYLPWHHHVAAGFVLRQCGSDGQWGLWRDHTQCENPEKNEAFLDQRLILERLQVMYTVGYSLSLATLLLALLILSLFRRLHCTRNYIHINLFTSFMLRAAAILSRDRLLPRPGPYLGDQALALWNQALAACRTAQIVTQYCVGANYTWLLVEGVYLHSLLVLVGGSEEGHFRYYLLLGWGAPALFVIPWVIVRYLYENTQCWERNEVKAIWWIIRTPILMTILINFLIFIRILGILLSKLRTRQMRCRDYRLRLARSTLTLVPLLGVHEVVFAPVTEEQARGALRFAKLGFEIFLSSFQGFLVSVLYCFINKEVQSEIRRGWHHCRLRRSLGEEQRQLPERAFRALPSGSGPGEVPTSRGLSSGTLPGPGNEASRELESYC

[2] = target: human glucagon receptor (human) (UniProt P47871)
human glucagon receptor (human), sequence (P47871 26-477): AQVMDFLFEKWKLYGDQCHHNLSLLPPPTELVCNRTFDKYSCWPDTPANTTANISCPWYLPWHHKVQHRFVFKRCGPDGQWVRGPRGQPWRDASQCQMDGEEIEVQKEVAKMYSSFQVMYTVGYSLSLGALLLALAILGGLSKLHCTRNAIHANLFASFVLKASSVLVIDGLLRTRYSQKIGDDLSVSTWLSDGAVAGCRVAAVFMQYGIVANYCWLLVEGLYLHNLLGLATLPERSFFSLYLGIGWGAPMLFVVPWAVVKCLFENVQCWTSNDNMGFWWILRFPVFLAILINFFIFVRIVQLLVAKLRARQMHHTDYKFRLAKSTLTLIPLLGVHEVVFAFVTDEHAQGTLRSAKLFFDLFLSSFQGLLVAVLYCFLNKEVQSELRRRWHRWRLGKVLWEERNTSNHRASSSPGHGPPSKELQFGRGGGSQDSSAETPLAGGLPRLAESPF

hGLP-1R, sequence (P43220 24-463): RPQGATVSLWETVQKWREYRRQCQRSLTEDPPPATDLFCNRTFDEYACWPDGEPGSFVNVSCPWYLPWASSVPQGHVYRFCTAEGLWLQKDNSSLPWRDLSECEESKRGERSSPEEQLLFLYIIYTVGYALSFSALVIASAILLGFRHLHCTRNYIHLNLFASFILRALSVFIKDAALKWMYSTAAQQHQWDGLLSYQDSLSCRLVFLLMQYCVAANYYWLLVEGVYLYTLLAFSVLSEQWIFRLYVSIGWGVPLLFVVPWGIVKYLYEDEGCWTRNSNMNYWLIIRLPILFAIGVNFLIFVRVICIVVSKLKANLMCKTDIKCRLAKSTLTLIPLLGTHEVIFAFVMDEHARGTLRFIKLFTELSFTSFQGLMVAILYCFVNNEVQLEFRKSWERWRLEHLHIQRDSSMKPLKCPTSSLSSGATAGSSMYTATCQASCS

B1: Example 1136 (peptide)
chain: YXQGTFTSDXXIXLDXKAQXQFIQXLIEXGPSSGAPPPSGGGE
modifications: not fully specified; non-natural residues (Aib, 4Pal, αMeS, Orn, Me4Pal); lipidated Lys; C-amide; synthetic construct; SITE 2: note = 2-Aminoisobutyric Acid; SITE 10: note = 3-(4-Pyridyl)-L-alanine; SITE 11: note = alpha-methyl-L-serine; SITE 13: note = alpha-methyl-leucine; SITE 16: note = L-ornithine; SITE 17: note = Lysine is chemically modified through conjugation of the epsilon-amino group
B1 gave a Relative cAMP EC50 (hGLP-1R) of 0.453 nM, a Relative cAMP EC50 [1] of 0.0131 nM and a Relative cAMP EC50 [2] of 1.26 nM.

B2: Example 1138 (peptide)
chain: YXQGTFTSDXXQXLDXKAQXQFIQXLLEXGPSSGAPPPSGGGE
modifications: not fully specified; non-natural residues, acylated Lys, C-terminal amide; synthetic construct; SITE 2: note = 2-Aminoisobutyric Acid; SITE 10: note = 3-(4-Pyridyl)-L-alanine; SITE 11: note = alpha-methyl-L-serine; SITE 13: note = alpha-methyl-leucine; SITE 16: note = L-ornithine; SITE 17: note = Lysine is chemically modified through conjugation of the epsilon-amino group
Work on B2 yielded a Relative cAMP EC50 (hGLP-1R) of 1.93 nM, a Relative cAMP EC50 [1] of 0.0491 nM and a Relative cAMP EC50 [2] of 1.01 nM.

B3: Example 1135 (peptide)
chain: YXQGTFTSDXXIXLDXKAQXQFIQXLIEXGPSSGAPPPSGGGE
modifications: not fully specified; N-methyl Tyr, non-natural residues, acylation, C-terminal amide; synthetic construct; SITE 1: note = N-methyl-tyrosine; SITE 2: note = 2-Aminoisobutyric Acid; SITE 10: note = 3-(4-Pyridyl)-L-alanine; SITE 11: note = alpha-methyl-L-serine; SITE 13: note = alpha-methyl-leucine; SITE 16: note = L-ornithine; SITE 17: note = Lysine is chemically modified through conju
Work on B3 yielded a Relative cAMP EC50 (hGLP-1R) of 0.746 nM, a Relative cAMP EC50 [1] of 0.0126 nM and a Relative cAMP EC50 [2] of 1.76 nM.

B4: Example 1139 (peptide)
chain: YXQGTFTSDXXQXLDXKAQXQFIQXLLEXGPSSGAPPPSGGGE
modifications: not fully specified; non-natural residues (Aib, 4Pal, αMeS, Iva, αMeY); lipidated K; amide; synthetic construct; SITE 2: note = 2-Aminoisobutyric Acid; SITE 10: note = 3-(4-Pyridyl)-L-alanine; SITE 11: note = alpha-methyl-L-serine; SITE 13: note = alpha-methyl-leucine; SITE 16: note = L-ornithine; SITE 17: note = Lysine is chemically modified through conjugation of the epsilon-amino group
B4 was tested, and the Relative cAMP EC50 (hGLP-1R) was 1.85 nM, the Relative cAMP EC50 [1] was 0.0431 nM and the Relative cAMP EC50 [2] was 5.29 nM.

B5: Example 1116 (peptide)
chain: YXQGTFTSDXSQXLDKKAQXAFIEXLIEXGPSSGAPPPSGTE
modifications: acylated Lys AEEA-γGlu-C18 diacid; non-natural residues; C-terminal amide; synthetic construct; SITE 2: note = 2-Aminoisobutyric Acid; SITE 10: note = 3-(4-Pyridyl)-L-alanine; SITE 13: note = alpha-methyl-leucine; SITE 17: note = Lysine is chemically modified through conjugation of the epsilon-amino group of the Lysine side chain with (2-[2-(2-Amino-ethoxy)-ethoxy]-acetyl)
In the case of B5, the Relative cAMP EC50 (hGLP-1R) is reported as 4.63 nM, the Relative cAMP EC50 [1] is reported as 0.134 nM and the Relative cAMP EC50 [2] is reported as 8.2 nM.

B6: Example 1126 (peptide)
chain: YXQGTFTSDXSQXLDKKAQXAFIEYLIEXGPSSGAPPPSGTE
modifications: non-natural residues; (γGlu)2-C18 diacid on Lys; C-terminal amide; synthetic construct; SITE 2: note = 2-Aminoisobutyric Acid; SITE 10: note = 3-(4-Pyridyl)-L-alanine; SITE 13: note = alpha-methyl-leucine; SITE 17: note = Lysine is chemically modified through conjugation of the epsilon-amino group of the Lysine side chain with (gamma-Glu)2-CO-(CH2)16-CO2H; SITE 20:
B6 was tested, and the Relative cAMP EC50 (hGLP-1R) was 4.56 nM, the Relative cAMP EC50 [1] was 0.174 nM and the Relative cAMP EC50 [2] was 3.92 nM.

B7: Example 1118 (peptide)
chain: YXQGTFTSDXSQXLDKKAQXAFIEXLIEXGPSSGAPPPSGTE
modifications: Lys acylated with (γGlu)2-C18 diacid; non-natural residues; C-amide; synthetic construct; SITE 2: note = 2-Aminoisobutyric Acid; SITE 10: note = 3-(4-Pyridyl)-L-alanine; SITE 13: note = alpha-methyl-leucine; SITE 17: note = Lysine is chemically modified through conjugation of the epsilon-amino group of the Lysine side chain with (gamma-Glu)2-CO-(CH2)16-CO2H; SITE 20:
For B7, the Relative cAMP EC50 (hGLP-1R) was 5.42 nM, the Relative cAMP EC50 [1] was 0.128 nM and the Relative cAMP EC50 [2] was 6.52 nM.

B8: Example 1121 (peptide)
chain: YXQGTFTSDXSQXLDKKAQXAFIEXLIEXGPSSGAPPPSGEE
modifications: Aib, 4Pal, αMeL, Me4Pal, acylated K, C-terminal amide; synthetic construct; SITE 2: note = 2-Aminoisobutyric Acid; SITE 10: note = 3-(4-Pyridyl)-L-alanine; SITE 13: note = alpha-methyl-leucine; SITE 17: note = Lysine is chemically modified through conjugation of the epsilon-amino group of the Lysine side chain with (gamma-Glu)2-CO-(CH2)16-CO2H; SITE 20:
For B8, the Relative cAMP EC50 (hGLP-1R) was 5.23 nM, the Relative cAMP EC50 [1] was 0.115 nM and the Relative cAMP EC50 [2] was 8.83 nM.

B9: Example 1142 (peptide)
chain: YXQGTXTSDXXIXLDXKAQXEFIEXLIEGGPSSGAPPPTGE
modifications: Aib, αMeF(2F), 4Pal, αMeS, αMeL, Orn, Me4Pal, αMeY, acyl, amide; synthetic construct; SITE 2: note = 2-Aminoisobutyric Acid; SITE 6: note = alpha-methyl-2-fluoro-L-phenylalanine; SITE 10: note = 3-(4-Pyridyl)-L-alanine; SITE 11: note = alpha-methyl-L-serine; SITE 13: note = alpha-methyl-leucine; SITE 16: note = L-ornithine; SITE 17: note = Lysine is chemically mo
B9 was tested, and the Relative cAMP EC50 (hGLP-1R) was 0.329 nM, the Relative cAMP EC50 [1] was 0.00706 nM and the Relative cAMP EC50 [2] was 1.34 nM.

B10: Example 1144 (peptide)
chain: YXQGTXTSDXXIXLDXKAQXEFIEXLIEGGPSSGAPPPGGE
modifications: non-natural residues; K acylated AEEA-γGlu-C18 diacid; C-amide; synthetic construct; SITE 2: note = 2-Aminoisobutyric Acid; SITE 6: note = alpha-methyl-2-fluoro-L-phenylalanine; SITE 10: note = 3-(4-Pyridyl)-L-alanine; SITE 11: note = alpha-methyl-L-serine; SITE 13: note = alpha-methyl-leucine; SITE 16: note = L-ornithine; SITE 17: note = Lysine is chemically mo
Binder B10 has a Relative cAMP EC50 (hGLP-1R) of 0.282 nM, a Relative cAMP EC50 [1] of 0.00649 nM and a Relative cAMP EC50 [2] of 1.32 nM.

B11: Example 1148 (peptide)
chain: YXQGTXTSDXXIXLDXKAQXEFIEXLIEGGPSSGAPPPEGE
modifications: non-natural residues, AEEA-γGlu-diacid acylated Lys, C-terminal amide; synthetic construct; SITE 2: note = 2-Aminoisobutyric Acid; SITE 6: note = alpha-methyl-2-fluoro-L-phenylalanine; SITE 10: note = 3-(4-Pyridyl)-L-alanine; SITE 11: note = alpha-methyl-L-serine; SITE 13: note = alpha-methyl-leucine; SITE 16: note = L-ornithine; SITE 17: note = Lysine is chemically mo
B11 was tested, and the Relative cAMP EC50 (hGLP-1R) was 0.299 nM, the Relative cAMP EC50 [1] was 0.00801 nM and the Relative cAMP EC50 [2] was 1.6 nM.

B12: Example 1146 (peptide)
chain: YXQGTXTSDXXIXLDXKAQXEFIEXLIEGGPSSGAPPPESE
modifications: non-natural residues, acylated Lys, C-terminal amide; synthetic construct; SITE 2: note = 2-Aminoisobutyric Acid; SITE 6: note = alpha-methyl-2-fluoro-L-phenylalanine; SITE 10: note = 3-(4-Pyridyl)-L-alanine; SITE 11: note = alpha-methyl-L-serine; SITE 13: note = alpha-methyl-leucine; SITE 16: note = L-ornithine; SITE 17: note = Lysine is chemically mo
B12 was tested, and the Relative cAMP EC50 (hGLP-1R) was 0.281 nM, the Relative cAMP EC50 [1] was 0.00628 nM and the Relative cAMP EC50 [2] was 1.22 nM.
